Trimeric HA Binding RLU and FACS M2-HK MFI data for eight molecules are collected here from patent US20120207760A1.

The target of assay [1] is recombinant homotrimeric HA, A/Japan/305/57 H2N2 (Influenza A virus A/Japan/305/57 (H2N2)). The experiment in a line: trimeric HA microarray, transfection set 5. The conditions noted are these: remark: other sources report otherwise.
Assay [2] concerns the target recombinant homotrimeric HA, A/Solomon Islands/3/06 H1N1 (Influenza A virus A/Solomon Islands/3/06 (H1N1)). Kind of assay: trimeric HA microarray, transfection set 5. The conditions noted are these: remark: other sources report otherwise.
The target in assay [3] is recombinant homotrimeric HA, A/California/4/09 H1N1 (Influenza A virus A/California/4/09 (H1N1)). The experiment in a line: trimeric HA microarray, transfection set 5. To be noted: remark: other sources report otherwise.
Assay [4] deals with recombinant homotrimeric HA, A/South Carolina/1/18 H1N1 (Influenza A virus A/South Carolina/1/18 (H1N1)). The experiment in a line: trimeric HA microarray, transfection set 5. The conditions noted are these: remark: other sources report otherwise.
The target of assay [5] is recombinant homotrimeric HA, A/Wisconsin/67/05 H3N2 (Influenza A virus A/Wisconsin/67/05 (H3N2)). The experiment in a line: trimeric HA microarray, transfection set 5. The conditions noted are these: remark: other sources report otherwise.
The target in assay [6] is M2 protein of influenza A/Hong Kong/483/97 (H5N1) (Influenza A virus A/Hong Kong/483/97).

B1: TCN-544 (5082_A19) (antibody, V domains shown)
VH: QVQLQESGPGLVKPSETLSLTCTVSRGSIGHYFWSWIRQPPGKGLEWIGYISYSGSTKYNPSLRSRVTISVDTSKNQFSLNLNSVTATDTALYYCAREDYDILTGAGPGMEVWGQGTTVTVSS
VL: QSMLTQPPSASGTPGQRVTISCSGSSSNIGSNTVNWFKHLPGTAPKLLIYRNDLRPSGVPDRFSGSKSGTSASLAISGLQSEDEADYYCATWDDSLNGFYVFGTGTKVTVL
With B1, the Trimeric HA Binding RLU came out at 1000 RLU in assay [1], 997 RLU in assay [2], 706 RLU in assay [3] and 1330 RLU in assay [4].

B2: TCN-543 (5081_G23) (antibody, V domains shown)
VH: QVHLVQSGAEVRKPGDSVKVSCKTSGYTFSTYPVAWVRQVPGQGLEWMGWISTYNGNTNFAQNFQGRVTLTTDTTTNTAYMEVRSLKFDDTAVYYCARVEGSYRDFWNNQNRFDPWGQGTLVTVSS
VL: SYVLTQPPSVSVAPGQTARISCGGSNIGGKSVHWYQQKPGQAPVLVVYDDSGRPSGIPERFSGSNSGDTATLTISRVEAGDEADYFCQVWDNFGGVFGTGTKVTVL
In the case of B2, the Trimeric HA Binding RLU in assay [5] stood at 37000 RLU; in assay [2] it was 43500 RLU; in assay [3] it was 2340 RLU; in assay [4], 28300 RLU.

B3: TCN-549 (5092_P04) (antibody, V domains shown)
VH: QVQLVQSGAEVKKPGASVKVSCKASGYTFTGYYMHWVRQAPGQGLEWMGWINPNSGDTNYAQKFQGRVTMTRDTSITTAYMELSSLRSDDTAVYYCARDSPYSSSWSFFDYWGQGPLVTVSS
VL: not shown
For B3, the Trimeric HA Binding RLU came out at 1080 RLU in assay [1], 51600 RLU in assay [5], 640 RLU in assay [2] and 622 RLU in assay [3].

B4: 3259_J21 (antibody, V domains shown)
VH: QVQLQESGPRVVRPSETLSLTCTVSGGSISSYNWIWIRQPPGKGLEWIGHIYDYGRTFYNSSLQSRPTISVDASKNQLSLRLTSVTASDTAVYYCARPLGILHYYAMDLWGQGTTVTVSS
VL: DIQMTQSPLSVSVSVGDRVTIACRASQSIDKFLNWYQQKPGKAPKLLIYGASNLHSGAPSRFSASGSGTDFTLTITNIQTEDFATYLCQQSFSVPAFGGGTKVEIK
Consider B4, for which, in assay [6], the FACS M2-HK MFI stood at 1670 MFI.

B5: 3136_G05 (antibody, V domains shown)
VH: QVQLQESGPGLVKPSETLSLTCSVSGGSISSDFWSWIRQPPGKGLEWIGYVYNRGSTKYSPSLKSRVTISADMSKNQFSLNMSSVTAADTAVYYCAKNGRSSTSWGIDVWGKGTTVTVSS
VL: DIQMTQSPSSLSASVGDRLTITCRASQSISTYLHWYQQKPGKAPKLLIYAASSLQSGVPSRFSGSRSGTDFTLTISSLQPDDFATYYCQQSYSPPLTFGPGTKVDMK
In turn, B5 gave an FACS M2-HK MFI in assay [6] of 109 MFI.

B6: 3243_J07 (antibody, V domains shown)
VH: QVQLQESGPGLLKPSDTLALTCTVSGGSITSDYWSWIRQPPGRGLDWIGFFYNGGSTKYNPSLKSRVTISADTSKNQLSLKLTSVTAADTGVYYCARHDVKFSGSYYVASWGQGTRVTVSS
VL: DIQMTQSPSSLSASVGDRVTISCRASQSISTYLNWYQQQPGKAPKVLISGATNLQSGVPSRFSGSGSGTDFTLTISSLQPEDFATYYCQQSYNTPLIFGQGTKLEIK
As to B6, the FACS M2-HK MFI in assay [6] came to 131 MFI.

B7: 3245_O19 (antibody, V domains shown)
VH: EVQLVESGGGLVQPGGSLRLSCTASGLSVSSTYMNWVRQAPGKGLEWVSVFYSETRTYYADSVKGRFTVSRHNSNNTLYLQMNSLRVEDTAVYYCARVQRLSYGMDVWGQGTTVTVSS
VL: DIQMTQSPSSLSASVGDRVTITCRASQSISTYLNWYQKRPGKAPKLLVYGASTLQSGVPSRFSGSGSGTDFTLTIASLQPEDSATYYCQQTYSIPLFGQGTRLEIK
B7 gave an FACS M2-HK MFI in assay [6] of 919 MFI.

B8: 3244_H04 (antibody, V domains shown)
VH: EVQLVESGGGLVQPGGSLRLSCTASGLSVSSTYMNWVRQAPGKGLEWVSVFYSETRTYYADSVKGRFTVSRHNSNNTLYLQMNSLRAEDTAVYYCARVQRLSYGMDVWGQGTTVTVSS
VL: DIQMTQSPSSLSASVGDRVTITCRASQSISTYLNWYQKRPGKAPKLLVYGASSLQSGVPSRFSGSGSGTDFTLTIASLQPEDSAVYYCQQTYSIPLFGQGTRLEIK
In the case of B8, the FACS M2-HK MFI in assay [6] worked out at 963 MFI.
